Drawing on patent US20160264634A1, this text covers IC50 of current block, whole-cell patch-clamp for three substances.

For experiment [1], the target named is mKv1.1 channel (mouse) (UniProt P16388). Put plainly: cell-based or functional assay.
Experiment [2] concerns the target mKv1.3 channel (mouse) (UniProt P16390). Put plainly: cell-based or functional assay.

Chain of mKv1.3 channel (mouse) (P16390 whole entry): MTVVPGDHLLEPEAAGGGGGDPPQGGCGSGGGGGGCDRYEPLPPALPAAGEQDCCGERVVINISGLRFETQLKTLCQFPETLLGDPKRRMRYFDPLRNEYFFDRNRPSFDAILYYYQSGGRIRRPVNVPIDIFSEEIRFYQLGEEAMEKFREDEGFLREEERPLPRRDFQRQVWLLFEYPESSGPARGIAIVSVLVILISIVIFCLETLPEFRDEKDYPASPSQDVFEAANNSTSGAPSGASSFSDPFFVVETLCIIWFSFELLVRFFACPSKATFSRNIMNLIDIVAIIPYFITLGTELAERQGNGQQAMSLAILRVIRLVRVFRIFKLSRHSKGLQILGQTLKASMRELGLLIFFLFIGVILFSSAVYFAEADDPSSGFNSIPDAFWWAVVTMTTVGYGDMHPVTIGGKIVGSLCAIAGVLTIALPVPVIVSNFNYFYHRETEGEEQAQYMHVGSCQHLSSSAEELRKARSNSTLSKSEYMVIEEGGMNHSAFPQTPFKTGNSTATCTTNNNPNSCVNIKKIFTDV
Chain of ShK (P29187 whole entry): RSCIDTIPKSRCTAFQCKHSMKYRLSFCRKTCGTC
Chain of mKv1.1 channel (mouse) (P16388 whole entry): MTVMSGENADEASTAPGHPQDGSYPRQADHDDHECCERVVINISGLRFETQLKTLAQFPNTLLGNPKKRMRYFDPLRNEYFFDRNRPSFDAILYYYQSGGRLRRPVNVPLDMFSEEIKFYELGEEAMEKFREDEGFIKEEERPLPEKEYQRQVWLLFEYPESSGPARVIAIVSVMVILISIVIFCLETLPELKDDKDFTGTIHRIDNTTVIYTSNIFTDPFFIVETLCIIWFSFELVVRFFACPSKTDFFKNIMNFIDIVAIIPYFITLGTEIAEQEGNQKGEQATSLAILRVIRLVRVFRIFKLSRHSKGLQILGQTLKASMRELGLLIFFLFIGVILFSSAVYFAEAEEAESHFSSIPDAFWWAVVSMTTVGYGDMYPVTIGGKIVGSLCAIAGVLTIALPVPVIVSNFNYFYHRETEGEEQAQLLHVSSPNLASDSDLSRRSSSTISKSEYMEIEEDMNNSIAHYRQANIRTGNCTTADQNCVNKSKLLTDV
Chain of ShK-K-amide (P29187 whole entry): as the sequence (P29187 whole entry) above

For the substance “ShK (from UniProt P29187 1-35) (peptide)”, the figures for the IC50 of current block, whole-cell patch-clamp in experiment [1] and in experiment [2] were 0.023 nM and 0.009 nM, respectively.

“ShK-amide (from UniProt P29187 1-35) (peptide)”: the IC50 of current block, whole-cell patch-clamp in experiment [1] was 0.037 nM; in experiment [2], 0.035 nM. In experiment [2], “ShK-K-amide (from UniProt P29187 1-35) (peptide)” came in with an IC50 of current block, whole-cell patch-clamp of 0.026 nM.
